The target in test [1] is human PAC1 receptor extracellular domain (ECD) (human) (UniProt P41586). In words: yeast-displayed Fab, FACS, 10 nM PAC1 receptor ECD.
Test [2] deals with human CGRP receptor extracellular domain (ECD) (human) (UniProt Q16602). In words: yeast-displayed Fab, FACS, 1 nM human CGRP receptor ECD.
Test [3] has the same target. The experiment in a line: yeast-displayed Fab, FACS, 10 nM human CGRP receptor ECD.

Numbering of substitutions follows the chain as printed.

Sequence of human PAC1 receptor extracellular domain (ECD) (human) (P41586 24-153): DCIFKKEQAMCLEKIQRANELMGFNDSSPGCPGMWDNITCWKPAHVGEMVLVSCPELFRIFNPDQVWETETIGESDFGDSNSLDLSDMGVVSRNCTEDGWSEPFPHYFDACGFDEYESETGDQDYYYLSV
Sequence of human CGRP receptor extracellular domain (ECD) (human) (Q16602 23-138 limits assumed, chain 1 of 2): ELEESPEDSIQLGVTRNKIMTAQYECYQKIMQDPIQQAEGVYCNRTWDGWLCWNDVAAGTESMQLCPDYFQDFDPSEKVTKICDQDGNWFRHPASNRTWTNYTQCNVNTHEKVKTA
Sequence of human CGRP receptor extracellular domain (ECD) (human) (chain, as listed by the source limits assumed, chain 2 of 2): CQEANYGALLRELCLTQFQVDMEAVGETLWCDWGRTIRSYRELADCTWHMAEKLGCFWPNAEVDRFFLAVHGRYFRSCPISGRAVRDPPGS

B1: anti-CGRP receptor variant 05, yeast-displayed Fab (Fab, V domains shown)
VH: QVQLVESGGGVVQPGRSLRLSCAASGFTFSSFGMHWVRQAPGKGLEWVAVISFDGSIKYSVDSVKGRFTISRDNSKNTLFLQMNSLRAEDTAVYYCARDRLNYYESSGYYHYKYYGMAVWGQGTTVTVSS
VL: QSVLTQPPSVSAAPGQKVTISCSGSFSNIGRSTVSWYQQLPGTAPKLLIYDNRWRAGGIPDRFSGSKSGTSATLGITGLQTGDEADYYCGTWDYQWKAVVFGGGTKLTVLG
For the molecule B1, in test [1], the Mutant vs. 4E4.2 Parent B/D Ratio worked out at 1.8 fold and the Normalized Binding Signal/Display Signal (B/D) was 0.2.

B2: anti-CGRP receptor variant 12, yeast-displayed Fab (Fab, V domains shown)
VH: B1 VH
VL: B1 VL with F26R, S32Y, T33S, W54Y, G57Q, Y94W, Q95A, W96T, K97T, A98S
For the molecule B2, in test [1], the Mutant vs. 4E4.2 Parent B/D Ratio was determined as 1.8 fold and the Normalized Binding Signal/Display Signal (B/D) is 0.19.

B3: 4E4.2 parental Fab, yeast-displayed (Fab, V domains shown)
VH: B1 VH
VL: QSVLTQPPSVSAAPGQKVTISCSGSSSNIGNNYVSWYQQLPGTAPKLLIYDNNKRPSGIPDRFSGSKSGTSATLGITGLQTGDEADYYCGTWDSRLSAVVFGGGTKLTVLG
In the case of B3, the Mutant vs. 4E4.2 Parent B/D Ratio in test [2], in test [3] and in test [1] was 1 fold in each case. In addition, the Normalized Binding Signal/Display Signal (B/D) in test [2] turned out to be 0.12; in test [3] it was 0.15; in test [1], 0.11.

The values above are taken from US20220363770A1.
